This note sets out measurements from PMC10098127.

This assay addresses HA-tagged N100A zDHHC17 (mouse) (UniProt Q80TN5).

As to “Human ankyrin-B-GFP (220-kDa splice variant of ankyrin-B)”, the protein levels of ankyrin-B-GFP (western blot) co-expressed with N100A zDHHC17 in HEK293T cells, against WT zDHHC17 or zDHHA17 worked out at 3 fold.
